# Numbered stars: 1 amine (or outer) side, 2 acyl side, 3 side chain; on linkers, the order of the positions; unused ones are H or OH. Bridge positions count the residues as written; N and C are the ends. Square brackets hold non-standard residues; d marks the D form. I, II: the chains in the order shown. X1 = CC(C)CCC[C@@H](C)[C@H]1CC[C@H]2[C@@H]3CC=C4C[C@@H](OC(=O)NCCOCCOCCOCCOCCC(=O)NCCOCCOCCOCCOCCOCCOCCOCCOCCOCCOCCOCCOCCOCCOCCOCCOCCOCCOCCOCCOCCOCCOCCOCCOCCOCCOCCOCCOCCC(=O)NC(CCC(=O)[*:1])(CCC(=O)[*:2])CCC(=O)[*:3])CC[C@]4(C)[C@H]3CC[C@]12C; PEG4 = NCCOCCOCCOCCOCCC(=O)O
# Experiments:
# [1] = Rat pharmacokinetics of cholesterol conjugates, Calvert study (Table 4 protocol); conditions: for bioavailability: male
# Protocol: For PIE12 monomer conjugates, in-life studies were performed by Invitek (Hayward, Calif.). Trimeric conjugate in-life studies were performed at Navigen (Salt Lake City, Utah). […] At each timepoint, plasma was obtained using lithium heparin. […] Plasma samples were stored at −80° C. and shipped prior to bioanalysis.
# The column temperature was maintained at 70° C.
# Fifty microliter aliquots of plasma for each time point was precipitated with 2.5 volumes of ice-cold acetonitrile containing 2% trifluoroacetic acid (v/v) and 370 nM CPT12 as internal standard. […] The column temperature was maintained at 70° C.
# CPT31 in Rat Plasma-Calvert Study
# Fifty microliter aliquots of plasma for each time point was precipitated with 5 volumes of ice-cold acetonitrile containing 1% formic acid (v/v). No internal standard was used. […] The column temperature was maintained at 40° C.
# All of the PK data presented in Table 3 was generated using the same animal protocols and similar bioanalytical methods. Different animal protocols and improved bioanalytical methods were used to generate the data in Table 4 (all PK fitiing was performed using WinNonlin software).
# [2] = Solubility in standard aqueous buffers
# [3] = Rodent pharmacokinetics of PIE12-trimer and conjugates (Table 3 protocol); format: in vivo, Sprague Dawley rats; conditions: rats
# Protocol: At each timepoint, plasma was obtained using lithium heparin.
# Samples were spiked with an internal standard then precipitated with two volumes of 98% acetonitrile/2% Formic acid. Supernatants were analyzed by LC/MS/MS using an Agilent HPLC system (Waters X-Bridge BEH C18 column) paired to an AB Sciex API 3000 triple-quad mass spectrometer using MRM methods. Lipid conjugates required lower source temperatures (300° C. vs 500° C.) for improved reproducibility.
# [4] = system: JRFL (R5) luciferase reporter pseudovirions on HOS-CD4-CCR5; test: Pseudovirion entry assay, JRFL; format: cell-based, HIV-1
# Protocol: Pseudovirion assays were performed as previously described (Welch et al., 2010, J. Virol. 84:11235-44; Welch et al., 2007, Proc. Natl. Acad. Sci. 104:16827-16833, each of which is incorporated herein by reference in its entirety). Briefly, a six-point dilution series of each inhibitor was generated in quadruplicate on HOS-CD4-CXCR4 (for HXB2) or HOS-CD4-CCR5 (for JRFL) monolayers in 96 well plates, after which HXB2 (X4) or JRFL (R5) luciferase reporter pseudovirions were added. After 2 days, cells were lysed using GloLysis buffer (Promega) and BrightGlo luciferase substrate (Promega) was added. Luminescence was read on a PolarStar Optima (BMG) plate reader and normalized to uninhibited controls. Inhibition curves were plotted and fit to a standard IC50 equation for normalized data [(1−c/(IC50+c)], weighting each point by its standard error using KaleidaGraph (Synergy Software). Reported IC50 values are the average of at least two independent quadruplicate assays.
# [5] = Non-human primate pharmacokinetics; format: in vivo, cynomolgus monkeys
# Protocol: Non-Human Primate Pharmacokinetics
# In-life was performed by Calvert Laboratories (Scott Township, Pa.). […] Upon IV dosing, 1 ml blood samples were collected at 0.083, 0.167, 0.25, 0.5, 1, 2, 4, 8, 16 and 24 h post-dose into chilled tubes containing K2EDTA, mixed by inversion, and centrifuged (3000 rpm, 4° C., 15 min) to isolate plasma. Plasma was stored at −80° C. until bioanalysis.
# Following a 13-day washout period, study animals were administered a single subcutaneous dose of CPT31 (10 mg/ml in 50 mM HEPES, pH 7.4) into the loose skin of the back between the shoulder blades at a dose of 3 mg/kg. Plasma samples were collected at pre-dose, 0.25, 0.5, 1, 2, 4, 8, 16, 24 and 48 hours post-dose. Collected blood samples were treated as described above. The pre-dose sample confirmed drug levels were below the lower limit of quantification (5.00 nM).
# CPT31 in Monkey Plasma-Calvert Study
# The internal standard, CPT31-IS was synthesized with an additional glycine on each PIE12-2 monomer (three in total), increasing the molecular mass by 171.1 Da. Plasma samples (200 μl) were spiked with CPT31-IS to a concentration of either 60 or 150 nM, then precipitated in 2% NH4OH in acetonitrile (500 μl). Following centrifugation, the supernatant was applied to a strong anion exchange solid-phase extraction 96-well plate (SOLAμ SAX, 2 mg/ml 96-well plate). The anion exchange plate was first conditioned with 400 μl of 2% NH4OH in methanol, followed by 400 μl of 2% NH4OH in water. The precipitated supernatant (500 μl) was then loaded into each well, followed by washing with 500 μl of 2% NH4OH in water, then 500 μl of methanol. Sample was eluted using two 50 μl aliquots of 2% formic acid in methanol.
# LC-MS analysis was conducted using an Agilent Infinity 1290 HPLC system paired to an Agilent 6450A Q-TOF mass spectrometer equipped with a Dual Jet Spray ESI source. […] Samples were analyzed against a standard curve of CPT31 from 5.00-2,000 nM.
# [6] = humans; cited from earlier work
# [7] = molecular target: HSA (Homo sapiens, UniProt P02768); conditions: cited from earlier work
# Chain of HSA (P02768 25-609): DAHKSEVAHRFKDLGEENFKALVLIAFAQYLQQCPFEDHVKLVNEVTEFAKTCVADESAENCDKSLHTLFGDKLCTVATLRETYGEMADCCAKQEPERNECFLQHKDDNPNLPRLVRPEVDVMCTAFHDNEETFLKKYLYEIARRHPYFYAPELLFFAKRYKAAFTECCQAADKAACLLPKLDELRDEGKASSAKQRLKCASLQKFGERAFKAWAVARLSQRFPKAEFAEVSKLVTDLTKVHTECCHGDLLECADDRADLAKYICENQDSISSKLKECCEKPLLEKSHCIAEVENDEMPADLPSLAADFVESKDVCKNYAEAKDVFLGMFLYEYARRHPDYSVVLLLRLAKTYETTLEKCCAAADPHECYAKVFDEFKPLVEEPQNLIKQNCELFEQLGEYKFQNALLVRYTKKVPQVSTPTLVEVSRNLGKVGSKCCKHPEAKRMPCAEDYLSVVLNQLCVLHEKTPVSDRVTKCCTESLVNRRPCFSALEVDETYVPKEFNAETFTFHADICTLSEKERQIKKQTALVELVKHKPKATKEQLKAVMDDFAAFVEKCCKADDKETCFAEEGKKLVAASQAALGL
# [8] = rats, SC, 1.0 mg/kg, plasma, median, updated protocols
# [9] = rat, in vivo, IV, 1.0 mg/kg, plasma, median
# [10] = rat, in vivo, SC, 1.0 mg/kg, plasma, median
# [11] = rats, IV, 1.0 mg/kg, plasma, median, updated protocols
compound,measurement,setting,value
CC(=O)N[C@H](Cc1c[nH]cn1)C(=O)N1CCC[C@@H]1C(=O)N[C@@H]1CSSC[C@H](C(=O)N[C@H](CCC(=O)O)C(=O)N[C@H](CC(C)C)C(=O)NCC(=O)N[C@H](CCCCNC(=O)CCOCCOCCOCCOCCNC(=O)CCOCC(COCCC(=O)NCCOCCOCCOCCOCCC(=O)NCCCC[C@@H](NC(=O)CNC(=O)[C@@H](CC(C)C)NC(=O)[C@@H](CCC(=O)O)NC(=O)[C@H]2CSSC[C@@H](NC(=O)[C@H]3CCCN3C(=O)[C@@H](Cc3c[nH]cn3)NC(C)=O)C(=O)N[C@H](CC(=O)O)C(=O)N[C@H](Cc3ccc(O)cc3)C(=O)N3CCC[C@@H]3C(=O)N[C@H](CCC(=O)O)C(=O)N[C@H](Cc3c[nH]c4ccccc34)C(=O)N[C@H](CCC(N)=O)C(=O)N[C@H](Cc3c[nH]c4ccccc34)C(=O)N[C@H](CC(C)C)C(=O)N2)C(N)=O)(COCCC(=O)NCCOCCOCCOCCOCCC(=O)NCCCC[C@@H](NC(=O)CNC(=O)[C@@H](CC(C)C)NC(=O)[C@@H](CCC(=O)O)NC(=O)[C@H]2CSSC[C@@H](NC(=O)[C@H]3CCCN3C(=O)[C@@H](Cc3c[nH]cn3)NC(C)=O)C(=O)N[C@H](CC(=O)O)C(=O)N[C@H](Cc3ccc(O)cc3)C(=O)N3CCC[C@@H]3C(=O)N[C@H](CCC(=O)O)C(=O)N[C@H](Cc3c[nH]c4ccccc34)C(=O)N[C@H](CCC(N)=O)C(=O)N[C@H](Cc3c[nH]c4ccccc34)C(=O)N[C@H](CC(C)C)C(=O)N2)C(N)=O)NC(=O)CCOCCOCCOCCOCCOCCOCCOCCOCCOCCOCCOCCOCCOCCOCCOCCOCCOCCOCCOCCOCCOCCOCCOCCOCCNC(=O)CCN2C(=O)CC(S[C@H]3CC[C@@]4(C)C(=CC[C@H]5[C@@H]6CC[C@H]([C@H](C)CCCC(C)C)[C@@]6(C)CC[C@@H]54)C3)C2=O)C(N)=O)NC(=O)[C@@H](CC(C)C)NC(=O)[C@@H](Cc2c[nH]c3ccccc23)NC(=O)[C@@H](CCC(N)=O)NC(=O)[C@@H](Cc2c[nH]c3ccccc23)NC(=O)[C@@H](CCC(=O)O)NC(=O)[C@H]2CCCN2C(=O)[C@@H](Cc2ccc(O)cc2)NC(=O)[C@@H](CC(=O)O)NC1=O (some centres unmarked) [CPT24],bioavailability,"[1]; rat, in vivo, sc, 1 mg/kg",51.4%
same,AUC(0-inf),"[1]; rat, in vivo, iv, 1 mg/kg",4.66 µM·h
same,C0,"[1]; rat, in vivo, iv, 1 mg/kg",4530 nM
same,Vd,"[1]; rat, in vivo, iv, 1 mg/kg",0.057 L/kg
same,half-life,"[1]; rat, in vivo, iv, 1 mg/kg",1.62 h
same,half-life,"[1]; rat, in vivo, sc",3.8 h
same,AUC(0-inf),"[1]; rat, in vivo, sc, 1 mg/kg",2.39 µM·h
same,Cmax,"[1]; rat, in vivo, sc, 1 mg/kg",395 nM
same,Tmax,"[1]; rat, in vivo, sc, 1 mg/kg",2 h
same,half-life,"[1]; rat, in vivo, sc, 1 mg/kg",3.88 h
same,F,[1]; [8],51%
same,solubility,[2],~40 mg/mL
same,bioavailability,"[3]; Sprague Dawley, rat, SC, 1.0 mg/kg, plasma, median",73%
same,AUC(0-inf),[3]; [9],2.39 µM·h
same,C0,[3]; [9],1110 nM
same,clearance,"[3]; rat, in vivo, IV, 1.0 mg/kg, plasma, median, read-out: Cl (obs) (converted)",0.783 mL/min/kg
same,half-life,"[3]; rat, in vivo, IV, 1.0 mg/kg, plasma, median, read-out: T1/2 (converted)",1.77 h
same,Vd,"[3]; rat, in vivo, IV, 1.0 mg/kg, plasma, median, read-out: Vz (obs)",0.13 L/kg
same,half-life,"[3]; rat, in vivo, IV, read-out: IV half-life (converted)",1.8 h
same,AUC(0-inf),[3]; [10],1.75 µM·h
same,Cmax,[3]; [10],304 nM
same,Tmax,[3]; [10],4 h
same,half-life,"[3]; rat, in vivo, SC, 1.0 mg/kg, plasma, median, read-out: T1/2 (converted)",2.71 h
same,half-life,"[3]; rat, in vivo, SC, read-out: SC half-life (converted)",2.7 h
same,increase of IV half-life vs PIE12-trimer,[3]; IV,> 3 fold
same,reduction of clearance vs PIE12-trimer,[3]; IV,~18 fold
same,extension of SC (apparent) half-life vs PIE12-trimer,"[3]; SC, terminal phase elimination",> 3 fold
CPT24-5kD: includes 5 kDa of linear polydisperse PEG between PIE12-trimer and thiocholesterol,"antiviral potency, in words",[4],comparable to CPT24
same,prolonged half-life compared to CPT24,"[1]; rats, IV",3.5 fold
same,AUC(0-inf),[1]; [11],4.578 µM·h
same,C0,[1]; [11],1100 nM
same,Cl (obs),[1]; [11],0.243 mL/min/kg
same,T1/2,[1]; [11],5.62 h
same,Vz (obs),[1]; [11],0.118 L/kg
same,prolonged half-life compared to CPT24,"[1]; rats, SC",1.8 fold
same,AUC(0-inf),[1]; [8],1.557 µM·h
same,Cmax,[1]; [8],89 nM
same,T1/2,[1]; [8],7.21 h
"I: Ac-[dH][dP][dC][dD][dY][dP][dE][dW][dQ][dW][dL][dC][dE][dL]G[PEG4][dK]-NH2 / II: Ac-[dH][dP][dC][dD][dY][dP][dE][dW][dQ][dW][dL][dC][dE][dL]G[PEG4][dK]-NH2 / III: Ac-[dH][dP][dC][dD][dY][dP][dE][dW][dQ][dW][dL][dC][dE][dL]G[PEG4][dK]-NH2 (disulfide I:3-I:12, II:3-II:12, III:3-III:12; linker I:17-II:17-III:17 via X1) [CPT31]",bioavailability,"[1]; rat, in vivo, sc, 1 mg/kg",55%
same,half-life,"[1]; rat, in vivo, iv, 1 mg/kg",3.25 h
same,half-life,"[1]; rat, in vivo, sc",5.4 h
same,solubility,[2],~40 mg/mL
same,half-life,"[5]; cynomolgus monkey, in vivo, non-human primates, SC, read-out: subcutaneous half-life (converted)",18 h
same,bioavailability,"[5]; cynomolgus monkey, male cynomolgus monkeys, SC, 3.0 mg/kg, plasma, median",80.4%
same,adverse events,"[5]; cynomolgus monkeys, IV 1 mg/kg then SC 3 mg/kg",no adverse events were observed
enfuvirtide,"volume of distribution, in words",[6],reduced volume of distribution
same,"HSA binding, in words",[7],highly HSA bound

# Source: US10487121B2, “D-peptide inhibitors of HIV entry and methods of use” (priority 2016, dated 2019)
